T1: human ICOS, full-length, expressed on transfected Expi293 cells (human, UniProt Q9Y6W8 21-199)
T1 construct: whole, on cells
T1 sequence (looked up): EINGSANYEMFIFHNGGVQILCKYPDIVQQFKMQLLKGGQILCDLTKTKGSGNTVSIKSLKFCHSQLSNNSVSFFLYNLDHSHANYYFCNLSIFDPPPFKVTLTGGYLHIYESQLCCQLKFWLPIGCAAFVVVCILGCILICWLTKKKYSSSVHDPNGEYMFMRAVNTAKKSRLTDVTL


Columns and labels:
[1] = biological target: T1, human ICOS, full-length, expressed on …; test: flow cytometry, 100 nM, Expi293 cells with human ICOS
[2] = biological target: T2, human CTLA-4, full-length, expressed on transfected Expi293 cells (human, UniProt P16410 36-223); test: flow cytometry, 100 nM, Expi293 cells with human CTLA-4
T2 construct: whole, on cells
T2 sequence (P16410 36-223): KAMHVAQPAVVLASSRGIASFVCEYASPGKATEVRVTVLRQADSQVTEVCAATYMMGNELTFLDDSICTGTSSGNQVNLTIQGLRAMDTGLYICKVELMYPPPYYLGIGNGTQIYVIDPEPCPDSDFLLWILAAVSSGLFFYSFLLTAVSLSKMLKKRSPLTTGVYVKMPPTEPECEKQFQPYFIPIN

[3] = biological target: T3, human CD28, full-length, expressed on transfected Expi293 cells (human, UniProt P10747 19-220); test: flow cytometry, 100 nM, Expi293 cells with human CD28
T3 construct: whole, on cells

MFI [1] [MFI] | MFI ratio to WT (ΔWT) [1] [fold] | MFI [2] [MFI] | MFI ratio to WT (ΔWT) [2] [fold] | MFI [3] [MFI] | MFI ratio to WT (ΔWT) [3] [fold] | Binder
224000 | 1.06 | 205000 | 0.62 | 161000 | 7.2 | variant ICOSL IgV-Fc fusion N52S/N57Y/Q100S (Fc fusion) DTQEKEVRAMVGSDVELSCACPEGSRFDLNDVYVYWQTSESKTVVTYHIPQSSSLEYVDSRYRNRALMSPAGMLRGDFSLRLFNVTPQDEQKFHCLVLSSSLGFQEVLSVEVTLHVAANFSVGSGGGGSEPKSSDKTHTCPPCPAPEAEGAPSVFLFPPKPKDTLMISRTPEVTCVVVDVSHEDPEVKFNWYVDGVEVHNAKTKPREEQYNSTYRVVSVLTVLHQDWLNGKEYKCKVSNKALPAPIEKTISKAKGQPREPQVYTLPPSREEMTKNQVSLTCLVKGFYPSDIAVEWESNGQPENNYKTTPPVLDSDGSFFLYSKLTVDKSRWQQGNVFSCSVMHEALHNHYTQKSLSLSPG
303000 | 1.43 | 395000 | 1.2 | 157000 | 7 | variant ICOSL IgV-Fc fusion N52S/N57Y/Q100M (Fc fusion) DTQEKEVRAMVGSDVELSCACPEGSRFDLNDVYVYWQTSESKTVVTYHIPQSSSLEYVDSRYRNRALMSPAGMLRGDFSLRLFNVTPQDEQKFHCLVLSMSLGFQEVLSVEVTLHVAANFSVGSGGGGSEPKSSDKTHTCPPCPAPEAEGAPSVFLFPPKPKDTLMISRTPEVTCVVVDVSHEDPEVKFNWYVDGVEVHNAKTKPREEQYNSTYRVVSVLTVLHQDWLNGKEYKCKVSNKALPAPIEKTISKAKGQPREPQVYTLPPSREEMTKNQVSLTCLVKGFYPSDIAVEWESNGQPENNYKTTPPVLDSDGSFFLYSKLTVDKSRWQQGNVFSCSVMHEALHNHYTQKSLSLSPG

Continued, binder first:

Binder | MFI [1] [MFI] | MFI ratio to WT (ΔWT) [1] [fold] | MFI [2] [MFI] | MFI ratio to WT (ΔWT) [2] [fold] | MFI [3] [MFI] | MFI ratio to WT (ΔWT) [3] [fold]
variant ICOSL IgV-Fc fusion N52S/N57H/Q100E (Fc fusion) DTQEKEVRAMVGSDVELSCACPEGSRFDLNDVYVYWQTSESKTVVTYHIPQSSSLEHVDSRYRNRALMSPAGMLRGDFSLRLFNVTPQDEQKFHCLVLSESLGFQEVLSVEVTLHVAANFSVGSGGGGSEPKSSDKTHTCPPCPAPEAEGAPSVFLFPPKPKDTLMISRTPEVTCVVVDVSHEDPEVKFNWYVDGVEVHNAKTKPREEQYNSTYRVVSVLTVLHQDWLNGKEYKCKVSNKALPAPIEKTISKAKGQPREPQVYTLPPSREEMTKNQVSLTCLVKGFYPSDIAVEWESNGQPENNYKTTPPVLDSDGSFFLYSKLTVDKSRWQQGNVFSCSVMHEALHNHYTQKSLSLSPG | 258000 | 1.22 | 302000 | 0.92 | 117000 | 5.2
variant ICOSL IgV-Fc fusion N52S/N57L/Q100S (Fc fusion) DTQEKEVRAMVGSDVELSCACPEGSRFDLNDVYVYWQTSESKTVVTYHIPQSSSLELVDSRYRNRALMSPAGMLRGDFSLRLFNVTPQDEQKFHCLVLSSSLGFQEVLSVEVTLHVAANFSVGSGGGGSEPKSSDKTHTCPPCPAPEAEGAPSVFLFPPKPKDTLMISRTPEVTCVVVDVSHEDPEVKFNWYVDGVEVHNAKTKPREEQYNSTYRVVSVLTVLHQDWLNGKEYKCKVSNKALPAPIEKTISKAKGQPREPQVYTLPPSREEMTKNQVSLTCLVKGFYPSDIAVEWESNGQPENNYKTTPPVLDSDGSFFLYSKLTVDKSRWQQGNVFSCSVMHEALHNHYTQKSLSLSPG | 269000 | 1.27 | 197000 | 0.6 | 108000 | 4.8
variant ICOSL IgV-Fc fusion N52S/N57M/Q100S (Fc fusion) DTQEKEVRAMVGSDVELSCACPEGSRFDLNDVYVYWQTSESKTVVTYHIPQSSSLEMVDSRYRNRALMSPAGMLRGDFSLRLFNVTPQDEQKFHCLVLSSSLGFQEVLSVEVTLHVAANFSVGSGGGGSEPKSSDKTHTCPPCPAPEAEGAPSVFLFPPKPKDTLMISRTPEVTCVVVDVSHEDPEVKFNWYVDGVEVHNAKTKPREEQYNSTYRVVSVLTVLHQDWLNGKEYKCKVSNKALPAPIEKTISKAKGQPREPQVYTLPPSREEMTKNQVSLTCLVKGFYPSDIAVEWESNGQPENNYKTTPPVLDSDGSFFLYSKLTVDKSRWQQGNVFSCSVMHEALHNHYTQKSLSLSPG | 312000 | 1.47 | 228000 | 0.69 | 134000 | 6

Reference: patent US20230235012A1 (ALPINE IMMUNE SCIENCES, published 2023)
